We go through two substances from publication PMC3627495.

The target of test [1] is His-YFP-EB3 S162E and His-CFP-EB3 S162E, full-length phospho-mimetic mutant (human) (UniProt Q9UPY8). The experiment in a line: FRET or BRET. In general terms: In BRET a luciferase serves as donor, and the signal depends on an acceptor being close.
The target of test [2] is His-YFP-EB3 and His-CFP-EB3, full-length wild type (human) (UniProt Q9UPY8). As to the kind of experiment: FRET or BRET.

As to “His-YFP-EB3 S162E and His-CFP-EB3 S162E, full-length phospho-mimetic mutant (from UniProt Q9UPY8 1-281) (natural protein)”, the t1/2 of chain exchange was 1.39 h in test [1] and 1.01 h in test [2].

Turning to “His-YFP-EB3 and His-CFP-EB3, full-length wild type (from UniProt Q9UPY8 1-281) (natural protein)”, the t1/2 of chain exchange in test [2] was 2.66 h.
